How the values were obtained:
[1] = biological target: Singapore16 N2 NA (head domain, residues 82-469) with VASP tetramerization domain (influenza A virus A/Singapore/INFIMH-16-0019/2016 (H3N2)); test: negative-stain electron microscopy
[2] = biological target: Singapore16 N2 NA (head domain, residues 82-469) without VASP tetramerization domain (influenza A virus A/Singapore/INFIMH-16-0019/2016 (H3N2)); test: negative-stain electron microscopy

Row | Substance | stoichiometry N [1] | stoichiometry N [2]
1 | Singapore16 N2 NA (head domain, residues 82-469) with VASP tetramerization domain (domain or fragment) | 4 | 
2 | Singapore16 N2 NA (head domain, residues 82-469) without VASP tetramerization domain (domain or fragment) |  | 4

— article PMC9772378
